Data published in publication PMC12880628, “X-Ray Crystal Structure of the N-Terminal Domain of Staphylococcus Aureus Cell-Cycle Protein GpsB” (Crystals, 2025).

Biological target: the molecule itself
Assay: crystal structure; SaGpsB 1-75 at 5 mg/mL, no ligand; reservoir 1.0 M succinic acid, 0.1 M HEPES pH 7.5, 1 %w/v PEG 2000 MME; one dimer in the asymmetric unit; molecular replacement

B1: N-terminal domain (residues 1–75) of Staphylococcus aureus GpsB (domain or fragment, Staphylococcus aureus strain NCTC 8325, UniProt Q2FYI5 1-75, looked up)
chain: MSDVSLKLSAKDIYEKDFEKTMARGYRREEVDAFLDDIIADYQKMADMNNEVVKLSEENHKLKKELEELRLRVAT
notes: GpsB, Staphylococcus aureus strain NCTC 8325, Uniprot Q2FYI5, SAOUHSC_01462, residues 1-75 (N-terminal dimerization domain); Asymmetric homodimer in the crystal; also called SaGpsB; GpsB 1–75; source: E. coli BL21 (DE3), purified (Ni-NTA, SUMO protease cleavage, anion exchange, Superdex75 SEC); not shown: 10xHis, N-terminal, cleaved; SUMO, N-terminal, cleaved
In the case of B1, the “stoichiometry N” value is reported as 2.
